Reference: the nanobody polyreactivity screen of Harvey et al. (2022)

Test: yeast display, Sf9 membrane polyspecificity reagent, FACS + sequencing; frameworks hold sequencing errors
How it was run: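 Genes from sorted yeast were amplified by colony PCR, read by MiSeq 2 × 250 sequencing and filtered on CDR length. These cells carried a synthetic nanobody library in Saccharomyces cerevisiae BJ5465 and were sorted by FACS into low and high (top ~1%) gates on anti-HA and streptavidin fluorescence. Polyreactivity is labelled according to the gate of origin.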

Row | Sequence | polyreactivity (PSR sort gate)
1 | QVQLVESGVGLVQAGGSLRLRCAASGFIFIHNAMGWYRQAPGKERELVAAISYSGGSTYYADSVKGRFTISRDTAKNTVYLQMNSLKPEDTAVYFCNRVQYYRADRMDYWGQGTQVTVSS | low polyreactivity
2 | QVQLVESGGGLVQAGGSLRLSCAASGFIFGRYTMGWSRQAPGKEGELVAAISGSDVSTYYADSVKGRFTISRDNAKNTVYLQLNSVKPEDTAVYYCAADAPWAYYEYDYWGQGTQVTVSS | low polyreactivity
3 | QVQIVESGGGLVQAGGSLRLSCAAYGSIFRLYAMGWYRQAPGKERDFVARIRWRGGSTNYPDSVKASFTISRDNAKNTVFVQMNSQKTVDTAVYYCAAKQGTVRAHTFVPWYDYWGQGTQVSVSS | high polyreactivity
4 | QVQLVESGGGLVQAGGSLRLSCAASGSTFTDNAMGWYRQAPGKERELVAAITSGSSTNYADSVKGRFTISRDNAKNTVYLQMNSLKPEDTAVYYCATCQEPQYSTGDYWGQGTQVTVSS | low polyreactivity
5 | QVQLVESGGGLVQAGGSLRLSCAASGRIFRYYAMGWYRQAPGKERELVASISNGGGTYYADSVKGRFTISRDNAKNTVYLQMNSLKPEDTAVYYCNARKWSQYIVPLRDYWGQGTQVTVSS | high polyreactivity
6 | QVQLVESGGGLVQAGGSLRLSCAASGSIFVDNAMGWYRQAPGKEREMVAAISRRGGSTYYADSVKGRFTISRDNAKNTVYLQMNSLKPEDTAVYYCNKKNIQFYQGASDYWGQGTQVTVSS | high polyreactivity
7 | QVQLVESGGGLVQAGGSLRLSCAASGSIFWDNAMGWYRQAPGKERELVAAITSSGDTTYYADSVKGRFTISRDNAKNTVYVQMNSLKPEDTAVYYCAKVFGPTDYLTGTFKGDYWGQGTQVTVSS | low polyreactivity
8 | QVQLVESGGGLVQAGGSLRLSCAASGRTFAWYAMGWYRQAPGKERELVAAISNVGSTYYADSVKGRFTISRDNAKNTVYLQMNSLKPEDTAVYYCNADAVSTDGREYWGQGTQVTVSS | low polyreactivity
9 | QLQLVESGGGLVQAGGSLRLSCAASGSIFHGNVMGRYRHAPGKEMELVAAISSSGGSTYYADSVKGRFTISRDIAKNTVYLQMNSLKPEDNAVYYCAARNRYWGQGTQVTVSS | high polyreactivity
10 | QVQLVESGGGLVQAGGSLRLSCAASGFTFGSNVMGWYRQAPGKERELVAAIRGRGGSTYYADSVKGRFTISRDNAKNTVYLQMNSLKPEDTAVYYCNAVYSYYYRWYYDFDYWGQGTQVTVSS | high polyreactivity
11 | QVQLVESGGGLVHAGGSLRLSCAACGRIFTYYAMGWYRQAPGKERELVAAITWSGGSTYYADSVKGRFTISRDNAKNTVYLQMNSLKPEDTAVYYCNAVVLHVTTDNSTFTTDDYWGQGTQVTVSS | low polyreactivity
12 | QVQLVESGGGLVQAGGSLRLSCAASGSTLHEYAMGWYRQAPGKARELVAAISRGGGNTNYADSVKGRFTISRDNAKNTVYLQMNSLIPEDTAVYYCNARHGKIIFYLERYDYWGQGTQVTVSS | low polyreactivity
13 | QDQLVESGGGLVQAGGSLRLSFAASGSTFVRYAMVWYRQAPGKERELVAAISRSGGSTYYADSVKGRFTISRDNAKNTVYLQMNSLKPEDTAVYYCAARLVYSGRDRGYDYWGQGTQVTVSS | high polyreactivity
14 | QVQLVESGGGLVQAGGSLRLSCAASGNTFYSYAMGWYRQAPGKERELVAAITWGGRRKFADSVKGRFTSSRDNAKITVYLQMNSLKPEDTAVYYCAARLFHGKTKFDYSGQGTQVTVSS | high polyreactivity
15 | QVQLVESGGGLVQAGGSLRLSCAASGSIFLGNTMGWYRQAPGKERELVAAITIGGSTHYADSVKGRFTISRDNAKNTVYLQMNSLKPDDTAVYYCAKEGWPFGIDFDYWGQGTQVTVSS | low polyreactivity
16 | QVQLVESGGGLVQAGGSLRLSCAASGRSFGTNAMVSYIQAPGKEREFVAAIRKSGATTYYADSVKGRFTISRDNAKNTVYLQMNSLKPDDTAVYYCAADFFYYGKWYSGYYWGQGTQVTVSS | high polyreactivity
17 | QLQLDESRGGLVQAGRSLRLSCAASGGNFRYYAMGWYRQAPGKERELDAAISSGGSTNYADSVKVRFTISRDNAKNTVYLQMNSLKREDTAVYYCAADVIYYYAYYTYDYWGQGTQVTVSS | low polyreactivity
18 | QVQLVESGGGLVQAGGSLRLSCAASGFIFAQNAMGWSRQAPGTERELVAAITSSGVSTYYADSVKGRFTISRDNAKNTVYLQMNSLKPEDTAVYYCNRTPRYTIRYGYWGQGTQVTVSS | high polyreactivity
19 | QVWLQESGGGLVQACGSLRLRCAASGTISRDIFMGWYRQAPGKEREFVATIAQGGITNYADSVKGRFTISRDNAKNTVYLQMNSVKPGDTAVYYCAARDGNCYWFYYLGQGTQVTVSS | high polyreactivity
20 | QVQLVESGGGLVQAGGSLRLSCAASGSIFIRYAMGWYRQAPGKERELVASISRSGGSTYYADSVKGRFTISRDNAKNTVYLQMNSLKPEDTAVYYCAARRVRPNGYTSSPLDYWGQGTQVTVSS | high polyreactivity
21 | QVQLVESGGGLVHAGGSLRLSCAASGRTLKYYAMGWYRQAPGKERELVAAISGGDSTYYADSVKGRFTISRDNAKNTVYLQMNSLKPEDTAVYYCNARRFIWWYPYLRDYWGQGTQVTVSS | high polyreactivity
22 | QVQLVESGGGLVQAGGSLRLSCAASGYIFGNYAMGWYRQAPGKERELVADITWRGDSTYADSVKGRFTISRDNAKKTVYLQMNSLKPEDTAVYYCAADIATEYWYTGYDHWGQGTQVTVSS | low polyreactivity

Row | Sequence | polyreactivity (PSR sort gate)
23 | QVQLVESGGGLVQAGGSLRLSCAASGYTFYSNAMGWYRQAPGKETELVASIRSRGRSTYYADSVKGRFTISRDNAKNTVYLQMNSLKPEDTAVYYCAALPNKPAVYAYDYWGQGTQVTVSS | low polyreactivity
24 | QVQLEESGGGLVQAGGSLRLSCAASGYIFRFYTMGWYRQAPGKERELVAAISSGGSTNYADSVKGRFTISRANAKNTVYLQMNSLKPEDTAVYYCAARFYSRYYWGQGTQVTVSS | low polyreactivity
25 | QVQLVESGGGLVQAGGSLRLSCAASGSISVRNVMGWYRQAPGKERELVATIRRTGGSTSYADSVKGRFTISRDNAKNTVYLQMNSLKPEDTAVYYCAAVGYTTYRRYDYWGQGTQVTVSS | low polyreactivity
26 | QVHLVESGGGIVQARGSLRLSCDASGFIFYDYAMGSYRLAPGKEWELVAAISKRGGSRYYADSVKGRFTISRDNAKNTVYLQMNSLKPEDTAVYYCATEVEPYAYGYWGQGTQVTVSS | high polyreactivity
27 | QVQLVESGGGLVQAGGSLRLSCAASGFTFVAYAMGWYRQAPGKERELVAAITWSGSRTYYADSVKGRFTISRDNAKNTVYLQMNSLKPEDTAVYYCAAGKTEGHYGYWGQGTQVTVSS | high polyreactivity
28 | QVQLVESGGGLVQAGGSLRLSCAASGSTFPYYTMGWYRQAPGKERELVAAITWRGGRTYYADSVKGRFTISRDNAKNTVYLQMNSLKPEDTAVYYCAAKQKHTQQTGWKYEYWGQGTQVTVSS | high polyreactivity
29 | QVQLEESGGGLVQAGGSLRLSCAASGFNFDVYAMGWYRQAPGKERELVAAISRSGGSTYYADSVKGRFTISRDNAKNTFYLQMNSLKPEDTAVYYCATDLLNNVDYDYWGQGTQVTVSS | low polyreactivity
30 | QVQLVESGGGLVQAGGSLRLSCAASGFTFNANAMGWYRQAPGKERELVAFITRSGGRTYYADSVKGRFTISRDNAKNTVYLQMNSLKPEDTAVYYCAKEGPSRVYQGTDSASDYWGQGTQVTVSS | high polyreactivity
31 | QVQLVESGGGLVQAGGSLRLSCAASGFILLYYAMGWYRQAPGKERELVAANSWTGGRTYYADSVKGRFTISRDNAKNTVYLQMTSLKPEDSAVYYCNTDKFFGRKYGYWGQGTQVTVSS | low polyreactivity
32 | QVQLVESAGGLVQAGGSLRLSSAASGYNFCSYAMGWYRQAPGKEREFVATISASGGRTYYADSVKGRFTISRDNAKNTVYLQMNSMKPEDTAVYYCNADPGNHAYWYYVEFYYYTYDYWGQGTQVTVSS | low polyreactivity
33 | QVQLVESGGCLVQAGGSLRLSCAASGFTFRYYAMGWYRQAPGKERELVAGITSGSRTNYADSVKGRFTISRDNAKNTVYLQMNSLKPEDSAVYYCAARIYNYQSWYDYWGQGTQVTVSS | high polyreactivity
34 | QVQLVESGGGLVQAGGSLRLSCAASGFTFSQYAMGWYRQAPGKERELDAAISWNGGSTYYADSVKGRFTISRDNAKNTVYLQMNSLKPEDTAVYYCAAYGYYTKVTKYDYWGQGTQVTVSS | high polyreactivity
35 | QVQLVESGGGLVHAGGSLRISCAASGSTFEWNAMGWYRQAPGKEREFVAAISKTGDGTYADSVKGRFTISRDNAKNSVYLQMNSLKPEDTAVYYCAAVDGFWVNYWYRIGYDYWGQGTQVTVSS | low polyreactivity
36 | QVQLVESGGGLVQAGGSLRLICAASGSIFSIYAMGWYRQAPGKERELVAAITWGGGSTYYADSVKGRFTISRDNAKNTVYLQINSLKPEDTAVYDCAAESLTWYGTYYYWGQGTQVTVSS | high polyreactivity
37 | QVQLVESGGGLVQAGGSLRLSCAASGSIFYPYAMGWYRQAPGKERELVAAISSGGRTYYADSVKGRFTISRDNAKNTVYLQMNSLKPEDTAVYYCAARPKAYGRPPGYYWGQGTQVTVSS | high polyreactivity
38 | QVQLVESGGGLVQAGGSLRLSCAASGRTFRYYVMGWYRQAPGKERELVAAITYSGGGTYYADSVKGRFTISRDNAKNTVYLQMNSLKPEDTAVYYCAAARTYQYDKYYYWGQGTQVTVSS | high polyreactivity
39 | QVKRVESGGGLVQAGGSLRLSCAASGSIFDEYAMGWYIQAPGKERELVAAITRTGGRTYYADSVKGRFTISRENAKNSVYLQMNSLIPEDTAVYFCNAPSRTRYDYWGQGTQVTVSS | low polyreactivity
40 | QVQLVESGGGLVQAGGSLRLSCAASGFILNKNVMGWYRQAPGKERELVAAITGSGGRTYYADSVKGRFSISRDNAKNTVYLQMNSLKPEDTAVYYCAARRPLVRYIMGYWGQGTQVTVSS | high polyreactivity
41 | QVQLVESGGGLVQAGGSLRLSCAASGSIFVHYAMGWYRQAPGKERELVAAITSSGGRTYYADSVKGRFTISRDNAKNTVYLQMNSLKPEDTAVYYCNAAKYLFRHGFLSAGDMYYWGQGTQVTVSS | high polyreactivity
42 | QVQLVESGGGLVQAGGSLRLSCAASGRIINYNVMGWYRQAPRKEMELVAAITRGGSTYYADSVKVRFTISRDNAKNTVYLQMNILKPEDTEVYYCSADTARRPRSYYYWGQGTQVTVSS | low polyreactivity
43 | QDQLVESVGGLVQAGVSLPLSCAASGIIFLYNDMGWFRQARGKAREFVATLSRSGGSTYYADSVKGRVTISRDNAKNTVYLQMNRLKPEETAVYYCAADEDSGYGYWGQGTQVTVTS | low polyreactivity
